The text below walks through data of publication doi:10.1101/2022.05.31.494233 (bioRxiv, 2022).

Among the targets are myrUSH3 K7A; myrUSH3 K5A; myrUSH3 D10R.
Assay in all cases: SPR
(SPR reads the build-up and loss of mass on a sensor chip optically.)

For data set [1], the target named is myristoylated Src N-terminal Regulatory Element (SNRE) of c-Src, wild type.
The data set “SPR” concerns the molecule itself.

Ends that are not written are not given here. * marks the point of attachment. Myristoyl = CCCCCCCCCCCCCC(=O)*

For the molecule myrUSH3 K7A (domain or fragment), in the data set with myrUSH3 K7A, the reduction of dimer formation relative to WT worked out at 50% and the reduction of the dimer population relative to WT at the same protein density came to 40%.
As to myrUSH3 K5A (domain or fragment), in the data set with myrUSH3 K5A, the reduction of dimer formation relative to WT stood at 50% and the reduction of the dimer population relative to WT at the same protein density was determined as 50%.
In general, stoichiometry N refers to the number of molecules, sites or subunits per partner or assembly. The molecule “myristoylated Src N-terminal Regulatory Element (SNRE) of c-Src, wild type (domain or fragment)” gave a stoichiometry N in data set [1] of 2.
For the molecule myrUSH3 D10R (domain or fragment), in the data set with myrUSH3 D10R, the fold increase of dimerization relative to WT came out at 6 fold.
As for Myristoyl-GSNKSKPKDASQRRR (peptide, UniProt P12931-1 2-16, looked up) [myristoylated synthetic peptide with residues 2-16 of c-Src (entire SH4 domain), wild type], the binding result in the data set “SPR” is on record as “binds”.
Consider Myristoyl-GSNRSRPRDASQRRR (peptide, UniProt P12931 2-16, looked up) [myrSH4 R5R7R9 (triple arginine)], for which, in the data set “SPR”, the binding result is recorded as “binds”.
